{"source": "paper PMC9352773", "molecular_target": "ScNtx-NT647, fluorescently labeled variant of ScNtx", "test": "MST; 5 nM ScNtx-NT647 held constant, Torpedo nAChR in asolectin-MSP1E3D1 nanodiscs titrated 0.5 nM to 1 μM; PBS pH 7.4, 0.05% Tween, 20 °C, high MST power, 4 % excitation power, triplicate; apparent affinity"}
{"substance": "Torpedo muscle-type nicotinic acetylcholine receptor, native, purified, reconstituted in asolectin-MSP1E3D1 lipidic nanodiscs (from UniProt P02710 25-461; P02714 18-506; P02718 22-522; P02712 25-493) (complex)", "values": [{"measurement": "Kd", "result": 28, "unit": "nM"}]}
